Our source for the koff values is paper PMC6127106 (2018).

The test addresses purified human platelet αIIbβ3 integrin (human, UniProt P05106 27-788). The experiment in a line: 2D off-rate, biomembrane force probe adhesion frequency.

The koff is a measure of how fast the partners let go of each other. Low readings indicate slow dissociation, high ones fast dissociation.

B1: C-terminal biotinylated recombinant human apoA-IV (apoA-IV-GGC) (ligand)
chain: EVSADQVATVMWDYFSQLSNNAKEAVEHLQKSELTQQLNALFQDKLGEVNTYAGDLQKKLVPFATELHERLAKDSEKLKEEIGKELEELRARLLPHANEVSQKIGDNLRELQQRLEPYADQLRTQVSTQAEQLRRQLTPYAQRMERVLRENADSLQASLRPHADELKAKIDQNVEELKGRLTPYADEFKVKIDQTVEELRRSLAPYAQDTQEKLNHQLEGLTFQMKKNAEELKARISASAEELRQRLAPLAEDVRGNLRGNTEGLQKSLAELGGHLDQQVEEFRRRVEPYGENFNKALVQQMEQLRQKLGPHAGDVEGHLSFLEKDLRDKVNSFFSTFKEKESQDKTLSLPELEQQQEQQQEQQQEQVQMLAPLESGGC
modifications: maleimide-PEG2-biotin on the C-terminal cysteine of the GlyGlyCys linker
B1: the koff was found to be 7.85 s⁻¹.

B2: human fibrinogen (ligand)
chain 1: GPRVVERHQSACKDSDWPFCSDEDWNYKCPSGCRMKGLIDEVNQDFTNRINKLKNSLFEYQKNNKDSHSLTTNIMEILRGDFSSANNRDNTYNRVSEDLRSRIEVLKRKVIEKVQHIQLLQKNVRAQLVDMKRLEVDIDIKIRSCRGSCSRALAREVDLKDYEDQQKQLEQVIAKDLLPSRDRQHLPLIKMKPVPDLVPGNFKSQLQKVPPEWKALTDMPQMRMELERPGGNEITRGGSTSYGTGSETESPRNPSSAGSWNSGSSGPGSTGNRNPGSSGTGGTATWKPGSSGPGSTGSWNSGSSGTGSTGNQNPGSPRPGSTGTWNPGSSERGSAGHWTSESSVSGSTGQWHSESGSFRPDSPGSGNARPNNPDWGTFEEVSGNVSPGTRREYHTEKLVTSKGDKELRTGKEKVTSGSTTTTRRSCSKTVTKTVIGPDGHKEVTKEVVTSEDGSDCPEAMDLGTLSGIGTLDGFRHRHPDEAAFFDTASTGKTFPGFFSPMLGEFVSETESRGSESGIFTNTKESSSHHPGIAEFPSRGKSSSYSKQFTSSTSYNRGDSTFESKSYKMADEAGSEADHEGTHSTKRGHAKSRPVRDCDDVLQTHPSGTQSGIFNIKLPGSSKIFSVYCDQETSLGGWLLIQQRMDGSLNFNRTWQDYKRGFGSLNDEGEGEFWLGNDYLHLLTQRGSVLRVELEDWAGNEAYAEYHFRVGSEAEGYALQVSSYEGTAGDALIEGSVEEGAEYTSHNNMQFSTFDRDADQWEENCAEVYGGGWWYNNCQAANLNGIYYPGGSYDPRNNSPYEIENGVVWVSFRGADYSLRAVRMKIRPLVTQ
chain 2: GHRPLDKKREEAPSLRPAPPPISGGGYRARPAKAAATQKKVERKAPDAGGCLHADPDLGVLCPTGCQLQEALLQQERPIRNSVDELNNNVEAVSQTSSSSFQYMYLLKDLWQKRQKQVKDNENVVNEYSSELEKHQLYIDETVNSNIPTNLRVLRSILENLRSKIQKLESDVSAQMEYCRTPCTVSCNIPVVSGKECEEIIRKGGETSEMYLIQPDSSVKPYRVYCDMNTENGGWTVIQNRQDGSVDFGRKWDPYKQGFGNVATNTDGKNYCGLPGEYWLGNDKISQLTRMGPTELLIEMEDWKGDKVKAHYGGFTVQNEANKYQISVNKYRGTAGNALMDGASQLMGENRTMTIHNGMFFSTYDRDNDGWLTSDPRKQCSKEDGGGWWYNRCHAANPNGRYYWGGQYTWDMAKHGTDDGVVWMNWKGSWYSMRKMSMKIRPFFPQQ
chain 3: YVATRDNCCILDERFGSYCPTTCGIADFLSTYQTKVDKDLQSLEDILHQVENKTSEVKQLIKAIQLTYNPDESSKPNMIDAATLKSRKMLEEIMKYEASILTHDSSIRYLQEIYNSNNQKIVNLKEKVAQLEAQCQEPCKDTVQIHDITGKDCQDIANKGAKQSGLYFIKPLKANQQFLVYCEIDGSGNGWTVFQKRLDGSVDFKKNWIQYKEGFGHLSPTGTTEFWLGNEKIHLISTQSAIPYALRVELEDWNGRTSTADYAMFKVGPEADKYRLTYAYFAGGDAGDAFDGFDFGDDPSDKFFTSHNGMQFSTWDNDNDKFEGNCAEQDGSGWWMNKCHAGHLNGVYYQGGTYSKASTPNGYDNGIIWATWKTRWYSMKKTTMKIIPFNRLTIGEGQQHHLGGAKQVRPEHPAETEYDSLYPEDDL
Take B2: the koff amounted to 8.41 s⁻¹.
